Reference: publication PMC2777315 (PLoS Pathogens, 2009)

T1: GST-IlsA fusion protein (IlsA, iron-regulated leucine-rich surface protein of Bacillus cereus ATCC 14579) (Bacillus cereus ATCC 14579, UniProt Q81G77 1-760)
T1 construct: also called IlsA-GST; purified IlsA; source: E. coli BL-21, purified (pellet solubilised in 8 M urea, dialysed, glutathione Sepharose 4B)
T1 sequence: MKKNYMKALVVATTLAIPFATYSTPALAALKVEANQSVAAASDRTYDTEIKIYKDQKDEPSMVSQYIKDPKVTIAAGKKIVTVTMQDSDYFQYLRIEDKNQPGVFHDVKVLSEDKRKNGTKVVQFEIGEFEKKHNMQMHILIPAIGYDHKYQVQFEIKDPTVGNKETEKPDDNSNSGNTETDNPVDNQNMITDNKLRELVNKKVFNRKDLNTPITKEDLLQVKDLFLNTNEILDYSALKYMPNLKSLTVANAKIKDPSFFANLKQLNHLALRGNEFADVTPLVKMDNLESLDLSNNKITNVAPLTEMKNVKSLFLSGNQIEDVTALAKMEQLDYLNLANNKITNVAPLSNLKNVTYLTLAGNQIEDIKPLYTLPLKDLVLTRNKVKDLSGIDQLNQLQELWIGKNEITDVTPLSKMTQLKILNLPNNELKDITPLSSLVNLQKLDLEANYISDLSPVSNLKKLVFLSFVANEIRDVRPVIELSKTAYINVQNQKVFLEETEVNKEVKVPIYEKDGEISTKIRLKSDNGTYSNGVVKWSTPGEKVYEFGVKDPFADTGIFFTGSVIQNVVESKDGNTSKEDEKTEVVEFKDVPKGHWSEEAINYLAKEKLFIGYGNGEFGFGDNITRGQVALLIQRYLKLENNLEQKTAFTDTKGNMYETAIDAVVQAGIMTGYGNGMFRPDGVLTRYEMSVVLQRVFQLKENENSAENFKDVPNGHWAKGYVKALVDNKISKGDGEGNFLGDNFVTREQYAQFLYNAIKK


Experiments:
Settings in all cases: both partners purified
[1] = molecular target: T1, GST-IlsA fusion protein (IlsA, …); test: SPR
[2] = molecular target: T1, GST-IlsA fusion protein (IlsA, …); test: ELISA
[3] = molecular target: T1, GST-IlsA fusion protein (IlsA, …); test: ELISA; hemoglobin or ferritin coated on plates in increasing amounts (0-180 nM), 0.1 M phosphate buffer pH 7.4; IlsA added at 30 nM, 2 h at 37°C; detected with polyclonal anti-IlsA; Kd estimated with Origin
[4] = molecular target: T1, GST-IlsA fusion protein (IlsA, …); test: SPR; BIAcore 3000; GST-IlsA captured by anti-GST antibody on a CM5 chip; ligands injected at 200 nM for 8 min, dissociation 10 min; 0.1 M phosphate buffer pH 7.4; 20°C; data did not fit a 1:1 model, indicative koff from the dissociation phase only

Row | Binder | koff [1] [s⁻¹] | Kd [2] [nM] | Kd [3] [nM] | koff [4] [s⁻¹]
1 | ferritin (complex, source: bought: Sigma-Aldrich) chain 1: MSSQIRQNYSTEVEAAVNRLVNLYLRASYTYLSLGFYFDRDDVALEGVCHFFRELAEEKREGAERLLKMQNQRGGRALFQDLQKPSQDEWGTTLDAMKAAIVLEKSLNQALLDLHALGSAQADPHLCDFLESHFLDEEVKLIKKMGDHLTNIQRLVGSQAGLGEYLFERLTLKHD chain 2: MTTAFPSQVRQNYHQDSEAAINRQINLELHASYVYLSMSFYFDRDDVALKNFAKYFLHQSHEEREHAEKLMKLQNQRGGRIFLQDIKKPDQDDWENGLKAMECALHLEKNVNESLLELHKLATDKNDPHLCDFLETHYLNEQVKAIKELGDHVTNLRRMGAPESGMAEYLFDKHTLGECDES | 0.00171 | 10 ± 3 |  | 
2 | hemoglobin (complex) chain 1: not shown chain 2: not shown |  |  | 3 ± 1 | 0.00148
